Laboratory results: the nanobody polyreactivity screen of Harvey et al. (2022)

Assay: yeast display, Sf9 membrane polyspecificity reagent, FACS + sequencing; frameworks hold sequencing errors
In short: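 Sorting gates, low and high (top ~1%), were placed on anti-HA fluorescence to track expression and on streptavidin fluorescence to track reagent binding. A clone's polyreactivity label is taken from the gate it came out of. The reagent was 10% biotinylated, detergent-solubilized Sf9 membrane, applied for 1 hour at 4 °C to galactose-induced yeast display cells.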

Sequence	polyreactivity (PSR sort gate)
QVQLVESGGGLVQAGGSLRLSCAASVSTFGDYTMGWYRQAPGKERELVAAITLTGGSTYYADSVKGRFTISRDNAKNTVYLQMNSLKPEDTAVYYCNTDVIRWVGGTWHRYYYWGQGTQVTVSS	low polyreactivity
QVQLVESGGGLVQAGGSLRLSCAASVSTFQGYSMGWYRQAPGKERELVAAITTDGDSTYYADSVKGRFTISRDNAKNTVYLQMNSLKPEDTAVYYCAADQDGRWEGSSDPGDSWGQGTQVTVSS	low polyreactivity
QVQLVESGGGLVQAGGSLRLSCAASVSTFVRYAMGWYRPAPGKDRELVAAIDGGGTTKYADSVKGRFTISRDNAKNTVYLQMNSLKTEDTAVYYCAADQVWGYDSWGQGTQVTVSS	low polyreactivity
QVQLVESGGGLVQAGGSLRLSCAASVSTFYSYAMGAYRKAPGKERELVATISTRGGSTYYADSVKGRFTISRDNAKNTVYLHMNSLKPEDTAVYYCNVRLEYRYYRGDYWGHGTQVTVSS	high polyreactivity
QVQLVESGGGLVQAGGSLRLSCAASVYTFKSYAMGWYRQAPGKERELVASISNDGSTNYADSVKGRFTISRDNAKNTVYLQMNSLKPEDTAVYYCNADFYDAPSQWARTGFDYWGQGTQVTVSS	low polyreactivity
QVQLVESGGGLVQAGGSLRLSCAATGFTFRTYAMGWYRQAPGKERELVAAITVSGGTYYADSVKGRFTITRDNAKNSFYFQMISLKPEDTAVYYCTAKRFRTGFDYWGQGTQVTVSS	low polyreactivity
QVQLVESGGGLVQAGGSLRLSCAATGGIFGYYSMGWYRQSPGKESELVAAINYSGGSTYYADSVKGRFTISRDNAKNTVYLQMNSLKPEDTAVYYCNAVVRDYTFRYYYWGQGTQVTVSS	low polyreactivity
QVQLVESGGGLVQAGGSLRLSCAATGGLFNVYVMGWYRQAPGKERELVAAITWRGGSTYYADSVKGRFTISRDNAKNTVYLQMNSLKPEDTAVYYCNADAPFQSSSDGYQVEYWGQGTQVTVSS	low polyreactivity
QVQLVESGGGLVQAGGSLRLSCAATGIIFGHYAMGWYRQAPGKERELVAAITSGGRTYYADSVKGRFTISRDNAKNTVYLQMNSLKPEDTAVYYCNVDQGYQGYLRIFDYWGQGTQVTVSS	low polyreactivity
QVQLVESGGGLVQAGGSLRLSCAATGIIFTGKSMGWYRQAPGTERELVASITSGDTTNYADSVKGRFTISRDNAKNTVYLQMNSLKPEDTAVYSCAKELQVRQGGDYWGQGTQVTVSS	low polyreactivity
QVQLVESGGGLVQAGGSLRLSCAATGIILGPYAMGWYRPAPGKERELVAAISWRGGSTYNADSVKGRFTISRDNAKNTVYLQMNSLKPEDTAVYYCATASRTSRTGWAGYYCGQGTQVTVSS	high polyreactivity
QVQLVESGGGLVQAGGSLRLSCAATGITFEGYAMGWYRQAPGKERELVAAIRSSGTSTYYADSVKGRFTISRDNAKNTVYLQMNSLKPEDTAVYYCNRARSSSRYDYCGQGTQVTVSS	low polyreactivity
QVQLVESGGGLVQAGGSLRLSCAATGITFTRYAMGWYRQAPGKEREFVAAIRRSGGNTYYADSVKGRFTISRDNAKNTVYILMNSLKPEDTAVYYCAASFRKTSPTRLVDYWGQGTQVTVSS	low polyreactivity
QVQLVESGGGLVQAGGSLRLSCAATGITFYINAMAWYIQAPGKESEFVAAIDFNTGDTYYADSVKGRFTISRDTSKNTVYLEMNRLKPEDTAVYYCAADVGYWYGYYYIYDFWAQGTQVTVSS	high polyreactivity
QVQLVESGGGLVQAGGSLRLSCAATGLFDVYAMGGYRQAPRKERELVAAISSDGSTYYADSVKGRFTISRDNAKNTVYLQMNSLKPEDTAVYYCNADTSGSPYLQGYVGYGYWGQGTQVTVSS	low polyreactivity
QVQLVESGGGLVQAGGSLRLSCAATGLIFGWYAMGWYRQAPGKERELVAAISYSGGRTYYADSVKGRFTISRDNAKNTVYLQMNSLKPEDSAVYYCAAIVLQLRGRGYEYWGQGTQVTVSS	high polyreactivity
QVQLVESGGGLVQAGGSLRLSCAATGRIFGGYPMGWYRQAPGKERELVAVISGRGGSTYYADSVKGRFTISRDNAKNTVYLQMNSLIPEDTAVYYCAAVGYYAWTFGYDYWGQGTQVTVSS	high polyreactivity
QVQLVESGGGLVQAGGSLRLSCAATGRIFLKYTMGWYRQAPGKERELVAAISRGRSTYYADSVKGRFTISRDNAMNTVYLQMNSLKPEDTAVYYFAATSYRRTGYYYWGQGTQVTVSS	high polyreactivity
QVQLVESGGGLVQAGGSLRLSCAATGRIFYGYTMGWYRQPPGKERELVAAINFNAGRTYYADSVKGRFTISRDNAKNTVYLQMNSLKPEDTAVYYCAAEGRFGRKYGYWGQGTQVTVSS	low polyreactivity
QVQLVESGGGLVQAGGSLRLSCAATGRTFLYNAMGWYRQAPGKERELVAAISFDDGSTYYADSVKGRFTISRDNAKNTVYLQMNSLKPEDPAVYYCAAEYLYVGDSQAYNQYEYWGQGTQVTVSS	low polyreactivity
QVQLVESGGGLVQAGGSLRLSCAATGRTFVSNAMGWYRQAPGKERELVAAISSSTGSTYYADSVKGRFTISRDNAKNTVYLQMNSLKPEDTAVYYCAAYLLGRSPYDYWGQGTQVTVSS	low polyreactivity
QVQLVESGGGLVQAGGSLRLSCAATGSIFNYYAMGWYRQAPGKERELVATISRGGRTNYADSVKGRFTISRDNAKNTVYLQMNRLKAEETAVYYCAADRYYTYNVYYFSSFVYWGHGTQVTVSS	high polyreactivity

Sequence	polyreactivity (PSR sort gate)
QVQLVESGGGLVQAGGSLRLSCAATGSIFRYYAMGWYRQAPGKERELVAAISWSGGSTYYSDSVKGRFTISRDNAKNTVYLQMNSLKPEDTAVYYCNVKRYGGRSDYWGQGSQVTVSS	high polyreactivity
QVQLVESGGGLVQAGGSLRLSCAATGSIFYGNAMGWYRQAPGKERELVAAISWGAGSTYYADSVKGRFTISRDNAKNTVYLQMNSLKPEDTAVYYCNTLQITGWYDYWGQGTQVTVSS	high polyreactivity
QVQLVESGGGLVQAGGSLRLSCAATGSIFYVNAMGWYRQAPGKERELVAVNADSVKGRFTISRDNAKNTVYLQMNSLKPEDTAVYYCAAGVNSTTRIYDYWGQGTQVTVSS	low polyreactivity
QVQLVESGGGLVQAGGSLRLSCAATGSNFINYAMGWYRQAPGKERELVAAYADSVKGRFTISRDNAKNTVYLQMNSLKPEDTAVYYCNAVTGEWGQGTQVTVSS	low polyreactivity
QVQLVESGGGLVQAGGSLRLSCAATGSTFAHNSMGWYRQAPGKESQFVAAISARGGMTYYADSVKGRFTISRDYAKNTVYLQMNSLKPEDTAVYYCAAVFGDYWSSQWSYAYGYWGQGTQVTVSS	high polyreactivity
QVQLVESGGGLVQAGGSLRLSCAATGSTFAVYSMGWYRQAPGKELELVATIRRNGGSTYYADSVKGRFTISRDNAKNTVYLQMNSLQPEDTAVYYCAARSRKRWGYNYWGQGTQVTVSA	high polyreactivity
QVQLVESGGGLVQAGGSLRLSCAATGSTFDDNVMGWYRQAHGKVRELVAAITTSGGSTFYADSVKWRFTISRDNAKNTVYLQMNSLKPEDTAVYYCNAVYFGLWGYYARRSYNYWGQGTQVTVSS	low polyreactivity
QVQLVESGGGLVQAGGSLRLSCAATGSTFLRNAIGWYRQAPGTERELVATITNGGSTYYADSVKGRFTISRDNAKNTVYLQMNSLKPEDTAVYYCATLSSYWSWLRYGYGYWGQGTQVTVSS	low polyreactivity
QVQLVESGGGLVQAGGSLRLSCAATGTTFHYYAMGWYRQAPGKERELVASITRSGGRTYYADSVKGRFTISRDNAKNTVYLQMNSLKPEDTAVYYCAARSYRRTSYDYPSNPNYEYYYWGQGTQVTVSS	high polyreactivity
QVQLVESGGGLVQAGGSLRLSCAATVSIFDRNAMGWYRQAPGKERELVAAISSVGSTNYADSVKGRFTISRDNAKNTVYLQMNSLKPEDTADYYCAAENEFIPSLFDYWGQGTQVTVSS	low polyreactivity
QVQLVESGGGLVQAGGSLRLSCAATVSTIKTYATMGLYRQAPWTERELVAAITSGSSTNYADSVKGRFTISRDNAKNTVYLQMNSMKPEDTAVYYCAADDYYNWYLGEPGDYWGQGTQVTVSS	low polyreactivity
QVQLVESGGGLVQAGGSLRLSCAAWSIFYLNAMGWNRQAPGKERELDAAISSAGSTYYADSVKGRFTISRDNAKNTFYLQMNSLKPEDTAVYYCAAYWYDSPGVTEIWYDYWGQGTQVTVSS	low polyreactivity
QVQLVESGGGLVQAGGSLRLSCAAYGFIFTRYAMGWSRQAPGKERELVAAISSSGGSTSYADSVKGRFTISRDNAKNTVYFQMNSLKPEDTAVYYCAARGYRLARYRSYDYWGQGTQVTVSS	high polyreactivity
QVQLVESGGGLVQAGGSLRLSCAAYGFTFKYYVMGWYRQAPGKERELVASISKRGGSTRYADSVKGRFTISRDNAKNTVYLQMNSLKPEDTAVYYCAAAFVRPPPYVGYSRFYYWGQGTQVTVSS	high polyreactivity
QVQLVESGGGLVQAGGSLRLSCAAYGFTFVDFVMGWSIQAPGKERELVAAITTSGTRTSYADSVKGRFTISRDNAKNTVYLQLNSLKPEDTAVYYCNADHKSIYPKYRGRFYYWGQGTQVTVSS	high polyreactivity
QVQLVESGGGLVQAGGSLRLSCAAYGIIFRRNAMGWYRQAPGKERELVAAISWSGGTTYYADSVKGRFTISRDNAKYTVYLQIISLKPEDTAVYYCAAGLISRPYGYDYWGQCTQVTVSS	high polyreactivity
QVQLVESGGGLVQAGGSLRLSCAAYGIIFWINSMGRYRPAPGKEREVVAAITSGGTTYYADSVKGRFTISRDNGKNTVYLQMNILKPEDTAVYYCAARVRGARDYYWGQGTQVTVSS	high polyreactivity
QVQLVESGGGLVQAGGSLRLSCAAYGIIFYLYVMGWYRQAPGKERELVAVISYSGDDTYYADSVKGRFTISRDNAKNTVYLQMNSLKPEDTAVYYCAADYYYVYSSFGHYYWGQGTQVTVSS	low polyreactivity
QVQLVESGGGLVQAGGSLRLSCAAYGLIFPVYAMGWYRQAPGKEREFVASIWRGGTTYYADSVKGRFTISRDNAKNTVYLQMNRLKPEDTAVYYCAARYYPRGLVFPFTKYDYWGQGTQVTVSS	high polyreactivity
QVQLVESGGGLVQAGGSLRLSCAAYGLTFLSNAMGWYRPAPGKEREFVAAITKSGGRTYYADSVKGRFTISRDNAKNTVYFQMNSLKPEDTSVYYCAASGTSPRSTWYNSWGQGTQVTVSS	high polyreactivity
QVQLVESGGGLVQAGGSLRLSCAAYGNAMGWYRQAPGKERELVASINRSGGRTYYADSVKGRFTISRDNAKNTVYLQMNSLKPEDTAVYYCAARPHYDSDYWGQGTQVTVSS	low polyreactivity
